Laboratory results from patent US20190359693A1 (Janssen / Centocor, published 2019).

B1: SD3007 (VHH)
VHH: EVQLLESGGGLVQPGGSLRLSCAASGFTLENKAIGWFRQAPGKEREGVSCISKSGSWTYYADSVKGRFTISRDNSKNTVYLQMNSLRAEDTAVYYCATTTAGGGLCWDGTTFSRLASSWGQGTQVTVSS
B2: SD3008 (VHH)
VHH: EVQLLESGGGLVQPGGSLRLSCAASGFTLENKAIGWFRQAPGKEREGVSCISKSGSWTYYADSVKGRFTISRDNSKNTVYLQMNSLRPEDTAVYYCATTTAGGGLCWDGTTFSRLASSWGQGTQVTVSS
B3: SD3011 (VHH)
VHH: EVQLLESGGGLVQPGGSLRLSCAASGFTLENKAIGWFRQAPGKEREGVLCISKSGSWTYYADSVKGRFTISRDNSKNTVYLQMNSLRAEDTAVYYCATTTAGGGLCWDGTTFSRLASSWGQGTQVTVSS
B4: SD3087 (VHH)
VHH: EVQLLESGGGLVQPGGSLRLSCAASGFTLENKAIGWFRQAPGKEREGVLCISKSGSWTYYADSVKGRFTISRDNSKNTVYLQMNSLRPEDTAVYYCATTTAGGGLCWDGTTFSRLASSWGQGTLVTVSS
B5: SD3088 (VHH)
VHH: EVQLLESGGGLVQPGGSLRLSCAASGFTLENKAIGWFRQAPGKEREGVLCISKSGSWTYYADSVKGRFTISRDNSKNTLYLQMNSLRAEDTAVYYCATTTAGGGLCWDGTTFSRLASSWGQGTLVTVSS
B6: SD3009 (VHH)
VHH: EVQLLESGGGLVQPGGSLRLSCAASGFTLENKAMSWFRQAPGKEREGVLCISKSGSWTYYADSVKGRFTISRDNSKNTLYLQMNSLRAEDTAVYYCATTTAGGGLCWDGTTFSRLASSWGQGTQVTVSS
B7: SD3012 (VHH)
VHH: EVQLLESGGGLVQPGGSLRLSCAASGFTLENKAIGWFRQAPGKEREGVLCISKSGSWTYYADSVKGRFTISRDNSKNTVYLQMNSLRPEDTAVYYCATTTAGGGLCWDGTTFSRLASSWGQGTQVTVSS
B8: SD3010 (VHH)
VHH: EVQLLESGGGLVQPGGSLRLSCAASGFTLENKAIGWFRQAPGKEREGVLCISKSGSWTYYADSVKGRFTISRDNSKNTLYLQMNSLRAEDTAVYYCATTTAGGGLCWDGTTFSRLASSWGQGTQVTVSS
B9: SD1084 (VHH)
VHH: EVQLVESGGGLVQPGGSLKLSCAASGFTFSTSWMYWLRQAPGKGLEWVSVINTDGGTYYADSVKDRFTISRDNAKDTLYLQMSSLKSEDTAVYYCAKDWGGPEPTRGQGTQVTVSS
B10: SD3001 (VHH)
VHH: EVQLVESGGGLVQPGGSLRLSCAASGFTFSTSWMSWLRQAPGKGLEWVSVINTDGGTYYADSVKGRFTISRDNSKNTLYLQMNSLRAEDTAVYYCAKDWGGPEPTRGQGTQVTVSS
B11: SD3002 (VHH)
VHH: EVQLVESGGGLVQPGGSLRLSCAASGFTFSTSWMYWLRQAPGKGLEWVSVINTDGGTYYADSVKGRFTISRDNSKNTLYLQMNSLRAEDTAVYYCAKDWGGPEPTRGQGTQVTVSS
B12: SD3086 (VHH)
VHH: EVQLVESGGGLVQPGGSLRLSCAASGFTFSTSWMYWVRQAPGKGLEWVSVINTDGGTYYADSVKGRFTISRDNSKNTLYLQMNSLRAEDTAVYYCAKDWGGPEPTRGQGTLVTVSS
B13: SD3004 (VHH)
VHH: EVQLVESGGGLVQPGGSLRLSCAASGFTFSTSWMYWLRQAPGKGLEWVSVINTDGGTYYADSVKGRFTISRDNSKDTLYLQMNSLRAEDTAVYYCAKDWGGPEPTRGQGTQVTVSS
B14: SD3003 (VHH)
VHH: EVQLVESGGGLVQPGGSLRLSCAASGFTFSTSWMSWLRQAPGKGLEWVSVINTDGGTYYADSVKGRFTISRDNSKDTLYLQMNSLRAEDTAVYYCAKDWGGPEPTRGQGTQVTVSS
B15: SD3085 (VHH)
VHH: EVQLVESGGGLVQPGGSLRLSCAASGFTFSTSWMYWLRQAPGKGLEWVSVINTDGGTYYADSVKGRFTISRDNSKNTLYLQMNSLRAEDTAVYYCAKDWGGPEPTRGQGTLVTVSS
B16: SD3049 (VHH)
VHH: EVQLVESGGGLVQPGGSLRLSCAASGLSLDTYAMSWFRQAPGKEREGVSCISSGHGMTYYADSVKGRFTISRDNSKNTLYLQMNSLQPEDTARYYCATESRYYCSDNWPAPQRYIYWGQGTQVTVSS
B17: SD3051 (VHH)
VHH: EVQLVESGGGLVQPGGSLRLSCAASGLSLDTYAMSWFRQAPGKEREGVSCISSGHGITYYADSVKGRFTISRDNSKNTLYLQMNSLQPEDTARYYCATESRYYCSDNWPAPQRYIYWGQGTQVTVSS
B18: SD3053 (VHH)
VHH: EVQLVESGGGLVQPGGSLRLSCAASGLSLDTYAMSWFRQAPGKEREGVSCISSGHGFTYYADSVKGRFTISRDNSKNTLYLQMNSLQPEDTARYYCATESRYYCSDNWPAPQRYIYWGQGTQVTVSS
B19: SD3052 (VHH)
VHH: EVQLVESGGGLVQPGGSLRLSCAASGLSLDTYAMSWFRQAPGKEREGVSCISSGHGLTYYADSVKGRFTISRDNSKNTLYLQMNSLQPEDTARYYCATESRYYCSDNWPAPQRYIYWGQGTQVTVSS
B20: SD1087 (VHH)
VHH: EVQLVESGGGLVQPGGSLRLSCVISGLSLDTYAVGWFRQAPGKEREGITCISSGHGMTYYADSVKGRFTVSTDNAKNTVYLQMNGLQPEDTARYYCATESRYYCSDNWPAPQRYIYWGQGTQVTVSS
B21: SD3055 (VHH)
VHH: EVQLVESGGGLVQPGGSLRLSCAASGLSLDTYAMSWFRQAPGKEREGITCISSGHGLTYYADSVKGRFTISRDNSKNTLYLQMNSLQPEDTARYYCATESRYYCSDNWPAPQRYIYWGQGTQVTVSS
B22: SD3050 (VHH)
VHH: EVQLVESGGGLVQPGGSLRLSCAASGLSLDTYAMSWFRQAPGKEREGITCISSGHGMTYYADSVKGRFTISRDNSKNTLYLQMNSLQPEDTARYYCATESRYYCSDNWPAPQRYIYWGQGTQVTVSS
B23: SD3054 (VHH)
VHH: EVQLVESGGGLVQPGGSLRLSCAASGLSLDTYAMSWFRQAPGKEREGITCISSGHGITYYADSVKGRFTISRDNSKNTLYLQMNSLQPEDTARYYCATESRYYCSDNWPAPQRYIYWGQGTQVTVSS
B24: SD1083 (VHH)
VHH: EVQLVESGGGLVQPGGSLRLSCAATGFTLENKAIGWFRQTPGSEREGVLCISKSGSWTYYTDSMRGRFTISRDNAENTVYLQMDSLKPEDTAVYYCATTTAGGGLCWDGTTFSRLASSWGQGTQVTVSS

Molecular target: hemagglutinin (HA) of influenza B/Brisbane/60/08 (Victoria) (influenza B virus)
Test: cell-based or functional assay

Point of comparison: B10, “VNA IC50” value 101 nM. Against it:
- B1 — higher, > 1000 nM
- B2 — higher, > 1000 nM
- B3 — 1.9-fold lower, 53 nM
- B4 — 3.2-fold lower, 32 nM
- B5 — the same, 101 nM
- B6 — 1.9-fold higher, 194 nM
- B7 — 1.7-fold lower, 59 nM
- B8 — within 1.5-fold, 149 nM
- B9 — 8.4-fold lower, 12 nM
- B11 — 20-fold lower, 5 nM
- B12 — 2.5-fold lower, 40 nM
- B13 — 20-fold lower, 5 nM
- B14 — the same, 101 nM
- B15 — 8.4-fold lower, 12 nM
- B16 — higher, > 1000 nM
- B17 — higher, > 1000 nM
- B18 — higher, > 1000 nM
- B19 — higher, > 1000 nM
- B20 — 3-fold lower, 34 nM
- B21 — higher, > 1000 nM
- B22 — higher, > 1000 nM
- B23 — higher, > 1000 nM
- B24 — 1.7-fold higher, 174 nM
